Laboratory results reported in patent US6673896.

Biological target: T4 glycoprotein (human T cell surface protein T4) (human) (UniProt P01730)
Experiment: cell-based or functional assay

## OKT4A monoclonal antibody
  VSV PSEUDOTYPE TITER, VSV(AIDS) +αT4A, CEM(T4+) cells: 200 PFU/ml
  VSV PSEUDOTYPE TITER, VSV(AIDS) +αT4A, HSB2-T4+ cells: 300 PFU/ml
  VSV PSEUDOTYPE TITER, VSV(AIDS) +αT4A, HeLa-T4+ cells: 200 PFU/ml
  VSV PSEUDOTYPE TITER, VSV(AIDS) +αT4A, Raji-T4+ cells: 150 PFU/ml
